Biological target: Psilocybe mexicana IasA (indole-3-acetaldehyde synthase), C-terminally hexahistidine-tagged (Psilocybe mexicana)
Test: SEC; Superdex 200 increase 10/300 GL, native protein, 50 mM sodium phosphate, 150 mM NaCl, pH 7.2, 0.5 mL/min

stoichiometry N: 2
Substance: Psilocybe mexicana IasA (indole-3-acetaldehyde synthase), C-terminally hexahistidine-tagged (enzyme)

Source: publication PMC11046786
